The labels stand for the following.
B1: CPEB3 Ribozyme (parent)
chain: GGGGGCCACAGCAGAAGCGUUCACGUCGCGGCCCCUGUCAGAUUCUGGUGAAUCUGCGAAUUCUGCUGU

In the data set the parent is B1. Kind of data set: self-cleavage, relative activity (ratio to wild type); higher = more cleavage; co-transcriptional.
Turning to U21G C63G, the self-cleavage worked out at 0.158.

For the variant U21G C63U, the self-cleavage is 0.434.

Take C22G A23C: the self-cleavage worked out at 0.179.

For C22G A23U, the self-cleavage was determined as 0.24.

Take C22A C66A: the self-cleavage was 0.232.

As to C22G A60G, the self-cleavage turned out to be 0.265.

On to U20G G48C, for which the self-cleavage was determined as 0.224.

Consider U21G A42G, for which the self-cleavage was determined as 0.558.

With U20G U62C, the self-cleavage stood at 0.244.

Turning to U21A U64G, the self-cleavage was determined as 0.898.

In the case of U21C C39G, the self-cleavage worked out at 0.895.

Regarding A23C G37U, the self-cleavage was determined as 0.299.

As for U20G G28U, the self-cleavage was 0.161.

Consider U20G U44C, for which the self-cleavage was found to be 0.199.

Regarding U20G U44A, the self-cleavage is 0.271.

Consider U21G A59U, for which the self-cleavage amounted to 0.219.

U21G A59G: the self-cleavage came out at 0.675.

Consider U21G C54A, for which the self-cleavage worked out at 0.341.

On to U21C U26A, for which the self-cleavage was found to be 0.216.

Take U21G C29A: the self-cleavage turned out to be 0.242.

On to C22A C54A, for which the self-cleavage was 0.0889.

On to U21G U26C, for which the self-cleavage was 0.308.

As for U21G C27U, the self-cleavage was found to be 0.112.

Take U21G C27A: the self-cleavage was 0.196.

On to U20G G25C, for which the self-cleavage was 0.227.

For U21A G48C, the self-cleavage is 1.01.

With C22A G56U, the self-cleavage amounted to 0.151.

Consider C22U A59G, for which the self-cleavage was 0.324.

With U21A G37A, the self-cleavage was 0.283.

U21A G37C: the self-cleavage is 0.217.

Turning to C22U C54G, the self-cleavage is 0.285.

C22U C54U: the self-cleavage was found to be 0.349.

For C22A C24A, the self-cleavage is 0.0966.

Regarding U21A U67G, the self-cleavage came out at 1.02.

Turning to C22A U55G, the self-cleavage turned out to be 0.162.

U21A C34G: the self-cleavage amounted to 0.606.

On to U21C C45G, for which the self-cleavage was determined as 0.864.

Turning to U21C G56C, the self-cleavage came out at 0.426.

Regarding C22G G50A, the self-cleavage amounted to 0.189.

Consider U20G C57G, for which the self-cleavage came out at 0.181.

Turning to U20G C57A, the self-cleavage came to 0.124.

On to C22A U36C, for which the self-cleavage worked out at 0.169.

Regarding U21G U64A, the self-cleavage is 0.304.

For the variant U21G U64G, the self-cleavage came to 0.295.

Take U21G U64C: the self-cleavage is 0.254.

Turning to U21A U55A, the self-cleavage came to 0.916.

As to U21A U55G, the self-cleavage was 0.811.

With U20G G37U, the self-cleavage amounted to 0.182.

On to U21G U53A, for which the self-cleavage stood at 0.473.

U21A G58C: the self-cleavage turned out to be 0.938.

For U21A G58U, the self-cleavage was determined as 0.996.

Turning to C22G U46G, the self-cleavage was determined as 0.178.

As to U21C U67G, the self-cleavage amounted to 0.978.

For the variant C22U G68U, the self-cleavage amounted to 0.51.

In the case of U21A C22U, the self-cleavage is 0.325.

As to U21C U69A, the self-cleavage is 0.885.

Turning to U21C U69G, the self-cleavage was determined as 0.933.

With U21G C34U, the self-cleavage was determined as 0.53.

U21G C34G: the self-cleavage is 0.193.

For the variant U21G G58A, the self-cleavage was 0.281.

As to C22G C66U, the self-cleavage was determined as 0.182.

Regarding C22U U43C, the self-cleavage is 0.295.

As for U20G C29U, the self-cleavage was determined as 0.137.

As for C22G G28A, the self-cleavage was 0.16.

In the case of U20G A51U, the self-cleavage amounted to 0.219.

For U20G A51C, the self-cleavage was determined as 0.27.

As for U20G G58C, the self-cleavage is 0.099.

For the variant U20G C27G, the self-cleavage worked out at 0.177.

Consider U20G C27A, for which the self-cleavage was determined as 0.105.

For U21C A60C, the self-cleavage is 0.406.

In the case of U21A A59U, the self-cleavage came to 0.891.

C22U G28C: the self-cleavage turned out to be 0.126.

C22A C45U: the self-cleavage was determined as 0.158.

C22A C45A: the self-cleavage was 0.155.

As for U21C C33G, the self-cleavage is 0.217.

On to U21C C33A, for which the self-cleavage was determined as 0.516.

As to C22G C57U, the self-cleavage was determined as 0.148.

Take C22G C57A: the self-cleavage worked out at 0.221.

Consider U21A C24U, for which the self-cleavage was determined as 0.69.

For U21G G65A, the self-cleavage was 0.255.

Regarding U21G U67C, the self-cleavage turned out to be 0.458.

Take U21G U67A: the self-cleavage stood at 0.549.

For U21C G28A, the self-cleavage worked out at 0.192.

For U21C G48A, the self-cleavage was 0.933.

Regarding U21C A52U, the self-cleavage is 0.93.

Take U21C A52G: the self-cleavage was 0.887.

U20G U69A: the self-cleavage amounted to 0.264.

On to C22G G68C, for which the self-cleavage was 0.156.

Take C22G G68A: the self-cleavage stood at 0.267.

Turning to U21C C29A, the self-cleavage turned out to be 0.274.

Take U21A G65U: the self-cleavage came out at 0.795.

With U21A G65A, the self-cleavage is 0.862.

Regarding C22G C32U, the self-cleavage is 0.182.

For U21G G56A, the self-cleavage stood at 0.774.

As for U21G G56C, the self-cleavage came out at 0.495.

Take A23C G25U: the self-cleavage turned out to be 0.176.

As for A23C G25C, the self-cleavage amounted to 0.151.

For C22G U53A, the self-cleavage is 0.136.

With A23C G31A, the self-cleavage was determined as 0.86.

As to U21C A42C, the self-cleavage turned out to be 0.853.

Take C22U A40C: the self-cleavage was determined as 0.165.

In the case of C22U A40U, the self-cleavage stood at 0.184.

C22U A40G: the self-cleavage was found to be 0.266.

With U21G A52C, the self-cleavage worked out at 0.459.

Turning to U20G G65C, the self-cleavage was found to be 0.166.

With U20G C24A, the self-cleavage is 0.128.

Take C22U U64C: the self-cleavage was 0.279.

C22U U64G: the self-cleavage stood at 0.237.

For U21G A40C, the self-cleavage is 0.222.

As for C22G U49A, the self-cleavage was 0.172.

With A23C C39U, the self-cleavage was 0.796.

For the variant U21G C45A, the self-cleavage was 0.643.

Regarding U21G C45U, the self-cleavage came out at 0.593.

U21G C45G: the self-cleavage is 0.567.

With C22A A59G, the self-cleavage came out at 0.232.

As for C22A A59C, the self-cleavage turned out to be 0.192.

With C22A A59U, the self-cleavage amounted to 0.198.

In the case of U21C A51G, the self-cleavage was determined as 0.914.

Regarding U20G U46G, the self-cleavage stood at 0.189.

In the case of A23C C35A, the self-cleavage came to 0.26.

With A23C C35U, the self-cleavage came out at 0.844.

With U20G A59C, the self-cleavage was 0.1.

Consider U21C U64A, for which the self-cleavage amounted to 0.706.

Turning to U21G C57G, the self-cleavage came out at 0.235.

As to U20C U62A, the self-cleavage stood at 0.133.

In the case of U20C U62G, the self-cleavage stood at 0.278.

On to C22G G56C, for which the self-cleavage is 0.158.

C22G G56A: the self-cleavage was found to be 0.241.

C22U U46C: the self-cleavage worked out at 0.369.

With C22U U46G, the self-cleavage stood at 0.274.

For the variant C22A U38C, the self-cleavage turned out to be 0.151.

As to C22U C66U, the self-cleavage is 0.33.

In the case of U21G A23G, the self-cleavage worked out at 0.549.

In the case of U21A G30A, the self-cleavage came to 0.866.

U20G G68U: the self-cleavage turned out to be 0.183.

For U21A C29A, the self-cleavage was found to be 0.686.

In the case of U21G U46C, the self-cleavage was 0.635.

A23C A42C: the self-cleavage was found to be 0.92.

For A23C A42U, the self-cleavage was 0.869.

As for U21A G28U, the self-cleavage is 0.241.

As to C22U A42G, the self-cleavage came to 0.204.

In the case of U20C U61G, the self-cleavage was 0.226.

In the case of U20G C34A, the self-cleavage was 0.223.

For U21A U62C, the self-cleavage was 0.844.

Consider U20G C33U, for which the self-cleavage was found to be 0.145.

On to C22U G48A, for which the self-cleavage is 0.379.

C22A U44C: the self-cleavage came out at 0.217.

Consider C22A U44A, for which the self-cleavage came to 0.184.

Turning to U21G U61A, the self-cleavage came to 0.319.

U21G A60C: the self-cleavage was 0.235.

For the variant A23C A59U, the self-cleavage was 0.67.

As to U20G U61A, the self-cleavage is 0.207.

On to U21G U49A, for which the self-cleavage was 0.527.

For the variant U21G U49G, the self-cleavage was determined as 0.486.

On to C22A A42U, for which the self-cleavage came to 0.181.

C22U A52U: the self-cleavage is 0.315.

Take U21C U62A: the self-cleavage is 0.661.

As for U21G G30U, the self-cleavage is 0.214.

For the variant U21G G30A, the self-cleavage worked out at 0.221.

In the case of U21G G30C, the self-cleavage amounted to 0.232.

With U21C A59C, the self-cleavage was 0.351.

For C22A C34G, the self-cleavage came out at 0.175.

Take C22A C34U: the self-cleavage is 0.219.

As to U20C U43G, the self-cleavage turned out to be 0.241.

Turning to U20C U43A, the self-cleavage was determined as 0.227.

With C22U U67C, the self-cleavage was found to be 0.365.

With C22U U67G, the self-cleavage came to 0.332.

For the origin of these results see the RNAGym collection of RNA variant scans (doi:10.7554/elife.80360).
